The source of these data is US12708677B2, “Contrast agents, methods for preparing contrast agents, and methods of imaging” (Georgia State University Research Foundation, Inc., priority 2008, dated 2026).

The nature of data set [1]: Zn^2+ binding affinity, dye competition assay (FluoZin). The text has this: FIG. 1.6: Measurement of metal binding constants. Gd^3+ binding affinity (FIG. 1.6a) and Zn^2+ binding affinity (FIG. 1.6b) of CA1.CD2 measured by dye competition assays. CA1.CD2 stock solution was gradually added into the 1:1 dye-metal complex to compete for the dye-bound metal ions. The insets show the titration curve for the dye indicators fluo 5N (FIG. 1.6a) and FluoZin (FIG. 1.6b), respectively. (FIG. 1.6c) La^3+ binding affinity obtained by Aromatic residue sensitized Tb^3+ luminescence energy transfer. The Tb^3+ fluorescence of a protein-Tb^3+ mixture decreases with the addition of La^3+. The La^3+ concentrations are 0, 0.30, 0.76, 5.95, 11.03, and 28.95 μM from top to bottom. The Tb^3+ fluorescence decrease competition was fitted (line) by a normal competition plus a nonspecific quenching effect (inset).
Since metal selectivity for Gd^3+ over other physiological metal ions is for minimizing the toxicity of the agents,^39, 40 we measured metal binding constants using dye-competition assays with various chelate-metal buffer systems (Table 1). Low limit metal binding affinities of the proteins were also estimated based on Tb^3+-sensitized FRET and competition assays. […] This is considered for in vivo applications of the contrast agent as the phosphate concentration in serum is maintained at ~1.3 mM.^6, 9 The stability of a contrast agent in blood circulation is another factor for in vivo applications. We characterized the stability by incubating Gd-CA1.CD2 with 75% human serum at 37° C. for 3 and 6 hours.
Metal binding affinity for Ca^2+ and Zn^2+ were determined using similar competition methods and specific dyes with proper Kd values.

A short description of data set [2]: Gd^3+-binding affinity, dye competition titration with Fluo-5N. To be noted: phosphate 50 mM. As for the experimental part:
Gd^3+-binding Affinity Determination, […]-binding affinity of CA1.CD2 was determined by a competition titration with Fluo-5N applied as a Gd^3+ indicator. The fluorescence spectra of Fluo-5N were obtained with a fluorescence spectrophotometer (Photon Technology International, Inc.) with a 10 mm path length quartz cell at 22° C. Fluo-5N emission spectra were acquired at […] to 650 nm with an excitation at 488 nm. […] The experiment was performed with a gradual addition of CA1.CD2. An apparent constant, Kapp, was estimated by fitting the fluorescence emission intensity of Fluo-5N at 520 nm with different CA1.CD2 concentrations as a 1 to 1 binding model. Gd^3+-binding affinity of CA1.CD2, Kd2, was calculated with the following equation: […]
Since metal selectivity for Gd^3+ over other physiological metal ions is for minimizing the toxicity of the agents,^39, 40 we measured metal binding constants using dye-competition assays with various chelate-metal buffer systems (Table 1). […]
Gd^3+-binding affinities of CA1.CD2 and its pegylated variants were determined by a competition titration with Fluo-5N applied as a Gd^3+ indicator (Yang et al., JACS, 2008). The fluorescence spectra of Fluo-5N were obtained with a fluorescence spectrophotometer (Photon Technology International, Inc.) with a 10 mm path length quartz cell at 22° C. […]

Data set [3] in a line: Water coordination number by terbium life time luminescence. It counts as physicochemical. As for the experimental part:
Measurement of Water Coordination Number by Terbium Life Time Luminescence. The number of water ligands coordinated to Gd^3+-CA1.CD2 complex was determined by measuring Tb^3+ luminescence decay in H2O or D2O. Tb^3+ excited state lifetime was measured using a fluorescence spectrophotometer (Photon Technology International, Inc.) with a 10 mm path length quartz cell at 22° ° C. Following excitation at 265 nm with a XenoFlash (Photon Technology International, Inc.), Tb^3+ emission was monitored at 545 nm in a time series experiment in both H2O and D2O systems. Luminescence decay lifetime was obtained by fitting the acquired data with a mono-exponential decay function. H2O in CA1.CD2 solution was replaced with D2O by lypholization and re-dissolved in D2O at least three times. A standard curve correlating the Δkobs with water number under our experimental conditions was established by using well-characterized chelators, such as EDTA (q=3), DTPA (q=1), NTA (q=5), and Aquo Tb^3+ (q=9) solution with R^2=0.997.^26,27 Water number coordinated to Tb^3+-CA1.CD2 complex was then obtained by fitting the acquired Δkobs value to the standard curve.
The numbers of water ligands coordinated to Gd^3+-CA1.CD2 and variants complex were determined by measuring Tb^3+ luminescence decay in H2O or D2O (Yang et al., 2008). Tb^3+ excited state lifetime was measured using a fluorescence spectrophotometer (Photon Technology International, Inc.) with a 10 mm path length quartz cell at 22° C. Following excitation at 265 nm with a XenoFlash (Photon Technology International, Inc.), Tb^3+ emission was monitored at 545 nm in a time series experiment in both H2O and D2O systems. Luminescence decay lifetime was obtained by fitting the acquired data with a mono-exponential decay function. H2O in CA1.CD2 solution was replaced with D2O by lypholization and re-dissolved in D2O at least three times. A standard curve correlating the Δkobs with water number under our experimental conditions was established by using well-characterized chelators, such as EDTA (q=3). DTPA (q=1), NTA (q=5), and Aquo Tb^3+ (q=9) solation with R^2=0.997.^26, 27 Water number coordinated to Tb^+-CA1.CD2 complex was then obtained by fitting the acquired Δkobs value to the standard curve.

Data set [4] is described as follows: Serum stability in human serum at 37° C., SDS-PAGE. To be noted: 75% human serum, 37° C., 6 hours. It counts as in vitro ADME. How it is done:
Serum stability. […] The degradation of the protein (disappearance of 12 kDa protein band) was analyzed by SDS-PAGE and visualized by coomassie blue staining. In parallel, the degradation of the protein was also analyzed by immunoblot using antibodies OX54 or PabCD2. The identities of the 12 kDa bands as CA1.CD2 were always verified by immunobloting using antibody PabCD2.
[…] The degradation of the protein (disappearance of 12 kDa protein band) was analyzed by SDS-PAGE and visualized by coomassie blue staining for protein and idiol staining for PEG moiety. In parallel, the degradation of the protein was also analyzed by immunoblot using antibodies OX54 or PabCD2. The identities of CA1.CD2 and pegylated variants were verified by immunoblotting using antibody PabCD2.and idiol staining.

In the next data set the test system is CD-1 mice. In words: Toxicity analyses and clinical pathology in mice.

Several values for one entry are separate records, joined by “and”; a condition that tells them apart may be missing. Equal entries are not always repeated. Marks after values point to notes of the source that are not given here.

Procedure for CD-1 mice: Toxicity Analyses. […] Tissue samples from kidney, liver, spleen, and lung were collected.
One group of mice received (i.v. tail veil) 50 μl of saline-buffer (as control). […] Blood samples were collected from the experimental mice. Serum samples were prepared from the collected blood. Liver enzymes in serum samples, including Alanine transaminase (ALT), Alkaline phosphatase (ALP), Aspartate transaminase (AST), Gamma glutamyl transpeptidase (GGT), and bilirubin and urea nitrogen were analyzed by a commercially available source (MU Research Animal Diagnostic Laboratory). All clinical chemistry parameters were measured on an Olympus AU 400 analyzer.
Tissue samples from kidney, liver, spleen, and lung were collected.

B1: CA1.CD2: designed Gd^3+-binding protein, domain 1 of rat CD2 with ligand residues Glu15, Glu56, Asp58, Asp62, Asp64 (protein)
chain: RDSGTVWGALGHGIELNIPNFQMTDDIDEVRWERGSTLVAEFKRKMKPFLKSGAFEIDANGDLDIKNLTRDDSGTYNVTVYSTNGTRILNKALDLRILE
For the molecule B1, in data set [1], the “Metal binding constant (Log Ka) Zn^2+” value was found to be 6.72 and the “disassociation constant (Kd) for Zn^2+” value was 190 nM. In addition, the “Log (KGd/KZn)” value in data set [1] (metal selectivity) is listed as 5.34. The “removal of Gd^3+ from the protein by phosphate” value in data set [2] is “not able to remove the Gd^3+ from the protein”. In addition, the “hydration number (water number in the coordination shell)” value in data set [3] was 2.1 and 2. In data set [3] (in D2O), the “Tb^3+ life time” value was 1,679 μs. In addition, the “Tb^3+ life time” value in data set [3] (protein complex in H2O) turned out to be 859 μs.

B2: Gd-CA1.CD2: CA1.CD2 in complex with Gd^3+ (protein)
chain: RDSGTVWGALGHGIELNIPNFQMTDDIDEVRWERGSTLVAEFKRKMKPFLKSGAFEIDANGDLDIKNLTRDDSGTYNVTVYSTNGTRILNKALDLRILE
On to B2, for which the “stability of protein-Gd complex in serum” value in data set [4] is “remained intact”. Besides, in the data set on CD-1 mice (4.0 μmole/kg, n = 4), the ALP is 115.0 ± 0.2 U/L, the ALT turned out to be 49.0 ± 0.2 U/L, the AST was 280.0 ± 0.2 U/L and the “Direct Bili” value is on record as 0.0 mg/L. For the same molecule, in the data set with CD-1 mice (4.0 μmole/kg, n = 4), the GGT came to 0.0 U/L, the “Total Bili” value was 0.4 ± 0.2 mg/L, the “Total Urine Protein” value came to 5.2 ± 0.2 g/L and the “Urea Nitrogen” value is recorded as 26.0 ± 0.2^d mg/L. The “effects on liver enzymes (ALT, ALP, AST), serum urea nitrogen, bilirubin, total protein vs control mice” value in the data set with CD-1 mice (48 hours post-contrast injection) is reported as “negligible”. In addition, in the data set with CD-1 mice (~2.4 μmole/kg, observed five days), the acute toxicity entry was “did not exhibit acute toxicity”.
